Measurements as given in article PMC12914646 (ACS infectious diseases, 2020).

Biological target: the molecule itself
Experiment: crystal structure

| Protein | stoichiometry N |
| --- | --- |
| fluorophosphonate-binding hydrolase F (FphF), apo form (enzyme, Staphylococcus aureus, UniProt Q2FUY3 2-253, looked up) AYISLNYHSPTIGMHQNLTVILPEDQSFFNSDTTVKPLKTLMLLHGLSSDETTYMRYTSIERYANEHKLAVIMPNVDHSAYANMAYGHSYYDYILEVYDYVHQIFPLSKKRDDNFIAGHSMGGYGTIKFALTQGDKFAKAVPLSAVFEAQNLMDLEWNDFSKEAIIGNLSSVKGTEHDPYYLLDKAVAEDKQIPKLLIMCGKQDFLYQDNLDFIDYLSRINVPYQFEDGPGDHDYAYWDQAIKRAITWMVND | 4 |
| FphF with the heptyl acyl moiety of 4-MU heptanoate covalently linked to Ser121 (enzyme, Staphylococcus aureus, UniProt Q2FUY3 2-253, looked up, heptyl acyl moiety covalently linked to Ser121) AYISLNYHSPTIGMHQNLTVILPEDQSFFNSDTTVKPLKTLMLLHGLSSDETTYMRYTSIERYANEHKLAVIMPNVDHSAYANMAYGHSYYDYILEVYDYVHQIFPLSKKRDDNFIAGHSMGGYGTIKFALTQGDKFAKAVPLSAVFEAQNLMDLEWNDFSKEAIIGNLSSVKGTEHDPYYLLDKAVAEDKQIPKLLIMCGKQDFLYQDNLDFIDYLSRINVPYQFEDGPGDHDYAYWDQAIKRAITWMVND | 4 |
| FphF with the 2-phenylpiperidine-1-carbonyl moiety of KT129 or KT130 covalently attached to Ser121 (enzyme, Staphylococcus aureus, UniProt Q2FUY3 2-253, looked up, 2-phenylpiperidine-1-carbonyl moiety covalently attached to the terminal side chain oxygen atom of Ser121) AYISLNYHSPTIGMHQNLTVILPEDQSFFNSDTTVKPLKTLMLLHGLSSDETTYMRYTSIERYANEHKLAVIMPNVDHSAYANMAYGHSYYDYILEVYDYVHQIFPLSKKRDDNFIAGHSMGGYGTIKFALTQGDKFAKAVPLSAVFEAQNLMDLEWNDFSKEAIIGNLSSVKGTEHDPYYLLDKAVAEDKQIPKLLIMCGKQDFLYQDNLDFIDYLSRINVPYQFEDGPGDHDYAYWDQAIKRAITWMVND | 4 |
